From patent publication US20200325208A1 (IMMUNOWAKE, published 2020)
Where two headings read alike, the source gives them in different places.

B1: Nivolumab (e.g., Opdivo®) (antibody, human IgG4 S228P, kappa, V domains shown)
VH: QVQLVESGGGVVQPGRSLRLDCKASGITFSNSGMHWVRQAPGKGLEWVAVIWYDGSKRYYADSVKGRFTISRDNSKNTLFLQMNSLRAEDTAVYYCATNDDYWGQGTLVTVSS
VL: EIVLTQSPATLSLSPGERATLSCRASQSVSSYLAWYQQKPGQAPRLLIYDASNRATGIPARFSGSGSGTDFTLTISSLEPEDFAVYYCQQSSNWPRTFGQGTKVEIKR
notes: Parental full-length IgG4 antibody; also called anti-PD-1 antibody
B2: Pembrolizumab (e.g., Keytruda®) (antibody, human IgG4 S228P, kappa, V domains shown)
VH: QVQLVQSGVEVKKPGASVKVSCKASGYTFTNYYMYWVRQAPGQGLEWMGGINPSNGGTNFNEKFKNRVTLTTDSSTTTAYMELKSLQFDDTAVYYCARRDYRFDMGFDYWGQGTTVTVSS
VL: EIVLTQSPATLSLSPGERATLSCRASKGVSTSGYSYLHWYQQKPGQAPRLLIYLASYLESGVPARFSGSGSGTDFTLTISSLEPEDFAVYYCQHSRDLPLTFGGGTKVEIKR
notes: Parental full-length IgG4 antibody, used as the positive anti-PD-1 control; also called anti-PD-1 antibody
B3: aPD-L1/LC-GS6-VEGFR-mIgG1 (other)
heavy: EVQLVESGGGLVQPGGSLRLSCAASGFTFSRYWMSWVRQAPGKGLEWVANIKQDGSEKYYVDSVKGRFTISRDNAKNSLYLQMNSLRAEDTAVYYCAREGGWFGELAFDYWGQGTLVTVSSASTKGPSVFPLAPSSKSTSGGTAALGCLVKDYFPEPVTVSWNSGALTSGVHTFPAVLQSSGLYSLSSVVTVPSSSLGTQTYICNVNHKPSNTKVDKRVEPKSCDKTHTCPPCPAPEFEGGPSVFLFPPKPKDTLMISRTPEVTCVVVDVSHEDPEVKFNWYVDGVEVHNAKTKPREEQYNSTYRVVSVLTVLHQDWLNGKEYKCKVSNKALPASIEKTISKAKGQPREPQVYTLPPSRDELTKNQVSLTCLVKGFYPSDIAVEWESNGQPENNYKTTPPVLDSDGSFFLYSKLTVDKSRWQQGNVFSCSVMHEALHNHYTQKSLSLSPGK
light: EIVLTQSPGTLSLSPGERATLSCRASQRVSSSYLAWYQQKPGQAPRLLIYDASSRATGIPDRFSGSGSGTDFTLTISRLEPEDFAVYYCQQYGSLPWTFGQGTKVEIKRTVAAPSVFIFPPSDEQLKSGTASVVCLLNNFYPREAKVQWKVDNALQSGNSQESVTEQDSKDSTYSLSSTLTLSKADYEKHKVYACEVTHQGLSSPVTKSFNRGECTGGGGSGGGGSGGGGSGGGGSGGGGSGGGGSTGSDTGRPFVEMYSEIPEIIHMTEGRELVIPCRVTSPNITVTLKKFPLDTLIPDGKRIIWDSRKGFIISNATYKEIGLLTCEATVNGHLYKTNYLTHRQTNTIIDVVLSPSHGIELSVGEKLVLNCTARTELNVGIDFNWEYPSSKHQHKKLVLSPVNRDLKTQSGSEMKKFLSTLTIDGVTRSDQGLYTCAASSGLMTKKNSTFVRVHEK
notes: Durvalumab (Fc-mutated IgG1) with Flt1d2-Flk1d3 fused to the C-terminus of the light chains through the GS6 linker; Expressed in CHO cells
B4: Human VEGF121/VEGF-A protein (human VEGF 121 isoform) with 6-His tag (ligand)
chain: APMAEGGGQNHHEVVKFMDVYQRSYCHPIETLVDIFQEYPDEIEYIFKPSCVPLMRCGGCCNDEGLECVPTEESNITMQIMRIKPHQGQHIGEMSFLQHNKCECRPKKDRARQEKCDKPRR
notes: range 27-147; Bought from Sino Biological; captured on the ELISA plate through an anti-His-tag antibody; not shown: 6-His tag
B5: Durvalumab (e.g., IMFINZI™) (antibody, human IgG1, kappa, V domains shown)
VH: EVQLVESGGGLVQPGGSLRLSCAASGFTFSRYWMSWVRQAPGKGLEWVANIKQDGSEKYYVDSVKGRFTISRDNAKNSLYLQMNSLRAEDTAVYYCAREGGWFGELAFDYWGQGTLVTVSS
VL: EIVLTQSPGTLSLSPGERATLSCRASQRVSSSYLAWYQQKPGQAPRLLIYDASSRATGIPDRFSGSGSGTDFTLTISRLEPEDFAVYYCQQYGSLPWTFGQGTKVEIKR
notes: Parental full-length IgG1 kappa; also called MEDI4736; anti-PD-L1 antibody
B6: Ixekizumab (e.g., Taltz®) (antibody, human IgG4 S228P, kappa, V domains shown)
VH: QVQLVQSGAEVKKPGSSVKVSCKASGYSFTDYHIHWVRQAPGQGLEWMGVINPMYGTTDYNQRFKGRVTITADESTSTAYMELSSLRSEDTAVYYCARYDYFTGTGVYWGQGTLVTVSS
VL: DIVMTQTPLSLSVTPGQPASISCRSSRSLVHSRGNTYLHWYLQKPGQSPQLLIYKVSNRFIGVPDRFSGSGSGTDFTLKISRVEAEDVGVYYCSQSTHLPFTFGQGTKLEIKR
notes: Parental full-length IgG4 antibody; also called anti-IL-17A antibody

Experiments:
[1] = target: B4; assay: ELISA, antigen captured by anti-His antibody on plate, HRP anti-IgG Fc detection
Experimental: (§1) 96-well ELISA plates were coated with 100 μl His-tag antibody (capture antibody, 0.4 μg/ml) at room temperature (RT) overnight. The coated plates were washed with washing buffer (pH 7.4 PBS with 0.1% Tween 20) three times, and blocked with 3% BSA in washing buffer for 2 hours, at RT. […] After washing three times, VEGFR-antibody light chain fusion proteins of various concentrations in washing buffer containing 3% BSA were added to the coated plates, and let incubation for 2 hours at RT. Aflibercept (VEGFR-Fc fusion protein) and the corresponding parental full-length antibody were included as positive controls. […] After washing three times, HRP conjugated anti-gG Fc antibody (secondary antibody) was added (1:6000 dilution with 3% BSA in washing buffer), and incubated for 2 hours at RT. After washing four times, 100 μl HRP substrate was added to each well. After developing for 20 minutes, stop buffer was added to each well. Optical density (OD) of each well was measured immediately using a microplate reader at 450 nm. EC₅, was calculated if OD>2.0; otherwise, EC₅₀ was not calculated.

Human IL-17A protein = target: T1, Human IL-17A protein (human, UniProt Q16552 24-155); assay: as above
T1 construct: Purchased
T1 sequence (Q16552 24-155 limits assumed): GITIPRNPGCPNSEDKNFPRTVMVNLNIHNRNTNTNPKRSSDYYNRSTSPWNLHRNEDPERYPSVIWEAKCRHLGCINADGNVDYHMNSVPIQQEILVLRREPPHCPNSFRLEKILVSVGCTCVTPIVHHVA
Experimental: as §1

[2] = target: B4; assay: as above; remark: listed apart in the source
Experimental: as §1

EGFR/LC-GS6-VEGFR-IgG1 = target: T2, EGFR/LC-GS6-VEGFR-IgG1; assay: ELISA
T2 construct: Cetuximab IgG1 with Flt1d2-Flk1d3 fused to the C-terminus of the light chains through the GS6 linker; Expressed in CHO cells

TNFα/LC-GS6-VEGFR-IgG1 = TNFα/LC-GS6-VEGFR-IgG1 (Homo sapiens (Human), UniProt P0DOX5 2-449 = IgG part); assay: ELISA
[3] = target: T3, tPD-L1/LC-GS6-VEGFR-nIgG1 (Homo sapiens (Human), UniProt P0DOX5 2-449 = IgG part); assay: ELISA
T3 construct: Atezolizumab (de-glycosylated IgG1) with Flt1d2-Flk1d3 fused to the C-terminus of the light chains through the GS6 linker; Expressed in CHO cells

Human PD-1 protein = target: T4, Human PD-1 protein (human, UniProt Q15116 25-167, limits assumed); assay: ELISA, antigen captured by anti-His antibody on plate, HRP anti-IgG Fc detection
T4 construct: Purchased
T4 sequence (Q15116 25-167 limits assumed): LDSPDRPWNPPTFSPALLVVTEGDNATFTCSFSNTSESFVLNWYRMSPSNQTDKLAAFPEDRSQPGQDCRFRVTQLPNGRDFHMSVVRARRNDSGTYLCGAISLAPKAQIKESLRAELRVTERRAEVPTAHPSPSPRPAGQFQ
Experimental: as §1

Binder: B1
binding result [1]: no binding | binding result (Human IL-17A protein): no binding

Binder: B2
binding result [1]: no binding | binding result (Human IL-17A protein): no binding

Binder: B3
EC50 [2]: 34.5 nM

Binder: B4
binding result (EGFR/LC-GS6-VEGFR-IgG1): binds | binding result (TNFα/LC-GS6-VEGFR-IgG1): binds | binding result [3]: binds

Binder: B5
binding result [2]: no binding

Binder: B6
binding result [1]: no binding | binding result (Human PD-1 protein): no binding | EC50 (Human IL-17A protein): 1.1 nM
